Reference: patent publication US20100280227A1
Each block holds one binder with its values, some of them ahead of it.

Experiments:
Assay in all cases: shotgun alanine scan of phage-displayed BR3; F against wild type
[1] = target: human BR3 displayed on phage, R30 alanine-scan mutant (human) (UniProt Q96RJ3)
[2] = target: human BR3 displayed on phage, mutated at A22 in the alanine scan (human) (UniProt Q96RJ3)
[3] = target: human BR3 displayed on phage, G36 alanine-scan mutant (human) (UniProt Q96RJ3)

- F value [1]: 20
B1: V3-1m (antibody, mouse IgG2a, V domains shown)
VH: EVQLVESGGGLVQPGGSLRLSCAASGFTISSNSIHWVRQAPGKGLEWVAWITPSDGNTDYADSVKGRFTISADTSKNTAYLQMNSLRAEDTAVYYCARRVCYNRLGVCAGGMDYWGQGTLVTVSS
VL: DIQMTQSPSSLSASVGDRVTITCRASQDVSTAVAWYQQKPGKAPKLLIYSASFLYSGVPSRFSGSGSGTDFTLTISSLQPEDFATYYCQQSRITPPTFGQGTKVEIKR

- F value [2]: 45
B2: murine monoclonal antibody 11G9 (antibody, V domains shown)
VH: DVQLQESGPSLVKPSQTLSLTCSVTGDSITSGYWNWIRKFPGNKLEYMGYISYSGSTYYNPSLKSRISITRDTSKNQFYLQLLSVTTEDTATYYCAGLDGLYWYFDVWGAGTLVTVSS
VL: DIVMTQTPLSLPVSLGDQASISCRSSQSLVHSNGNTYLHWYLQKPGQSPKLLIYKVSNRFSGVPDRFSGSGSGTDFTLKISRVEAEDLGVYFCSQSTHVPPFTFGSGT

- F value [3]: 14
B3: murine monoclonal antibody 2.1 (antibody, V domains shown)
VH: EVQLQESGPSLVKPSQTLSLTCSVTGDSITRGYWNWIRKFPGNKLEFMGYINYSGTTYYNPSLKSRISITRDTSKNQYYLQLNSVTTEDTATYYCATPHTYGAMDYWGQGTTLTVSA
VL: DIVLTQSPVSLAVSLGQRATISCRASESVDDYGISFMHWYQQKPGQPPKLLIYRASDLESGIPARFSGSGSGTDFTLTINPVETDDVAIYYCQQTSKDPWTFGGGT
